# Source: patent EP3470426A1 (Numab Therapeutics AG, dated 2019)
# Assays:
# Test in all cases: cell-based or functional assay
# [1] = target: T1, CD137 on Jurkat NFkB reporter cells (human, UniProt Q07011 24-255)
# [2] = target: T1, CD137 on Jurkat NFkB reporter cells; remark: listed apart in the source
# [3] = target: T1, CD137 on Jurkat NFkB reporter cells; remark: listed apart in the source
# [4] = target: T1, CD137 on Jurkat NFkB reporter cells; remark: listed apart in the source
# human PD-L1 on cells = human PD-L1 on cells (human, UniProt Q9NZQ7 19-290)
binder,measurement,setting,value
PRO1123 (bispecific antibody) DIQMTQSPSSLSASVGDRVTITCQASQSINDYLAWYQQKPGKAPKLLIYKASTLASGVPSRFSGSGSGTDFTLTISSLQPEDFATYYCQQGYIITDIDNVFGTGTKVTVLGGGGGSQVQLQESGPGLVKPSETLSLTCKVSGFSFSNSYWICWVRQPPGKGLEWIGCTFVGSSDSTYYANWAKGRVTISVDSSKNQVSLKLSSVTAADTAVYFCARHPSDAVYGYANNLWGQGTLVTVSSGGGGSGGGGSGGGGSGGGGSIQMTQSPSSLSASVGDRVTITCQASQSINNVLAWYQQKPGKPPKLLIYRASTLASGVPSRFSGSGSGTDFTLTISSLQPEDFATYYCQSSYGNYGDFGTGTKVTVLGGGGGSQVQLQESGPGLVKPSETLSLTCKVSGFSFSSGYDMCWIRQPPGKGLEWIGCVVAGSVDITYYASWAKGRVTISVDSSKNQFSLKLSSVTAADTAVYYCARKDAYSDAFNLWGQGTLVTVSS,"EC50, NFkB-luciferase reporter, CHO-PD-L1 cells",[1],5.75 ng/mL
same,"EC50, NFkB-luciferase reporter, HCC827 cells without IFNg",[2],16.1 ng/mL
same,"EC50, NFkB-luciferase reporter, HCC827 cells stimulated with IFNg",[3],11.9 ng/mL
same,"max. activation (%), NF-kB reporter, CHO-PD-L1",[4],219%
same,"max. activation (%), NF-kB reporter, HCC827 +IFNg",[4],154%
same,"max. activation (%), NF-kB reporter, HCC827 -IFNg",[4],123%
PRO1124 (bispecific antibody) DIQMTQSPSSLSASVGDRVTITCQASQSINDYLAWYQQKPGKAPKLLIYKASTLASGVPSRFSGSGSGTDFTLTISSLQPEDFATYYCQQGYIITDIDNVFGTGTKVTVLGGGGGSQVQLQESGPGLVKPSETLSLTCKASGFSFSNSYWICWVRQPPGKGLEWIGCTFVGSSDSTYYANWAKGRVTISKDSSKNQVSLKLSSVTAADTAVYFCARHPSDAVYGYANNLWGQGTLVTVSSGGGGSGGGGSGGGGSGGGGSLQMTQSPSSLSASVGDRVTITCQASQSINNVLAWYQQKPGKPPKLLIYRASTLASGVPSRFSGSGSGTDFTLTISSLQPEDFATYYCQSSYGNYGDFGTGTKVTVLGGGGGSQVQLQESGPGLVKPSETLSLTCKVSGFSFSSGYDMCWIRQPPGKGLEWIGCVVAGSVDITYYASWAKGRVTISVDSSKNQFSLKLSSVTAADTAVYYCARKDAYSDAFNLWGQGTLVTVSS,"EC50, NFkB-luciferase reporter, CHO-PD-L1 cells",[1],3.68 ng/mL
same,"EC50, NFkB-luciferase reporter, HCC827 cells without IFNg",[2],5.62 ng/mL
same,"EC50, NFkB-luciferase reporter, HCC827 cells stimulated with IFNg",[3],4.83 ng/mL
same,"max. activation (%), NF-kB reporter, CHO-PD-L1",[4],229%
same,"max. activation (%), NF-kB reporter, HCC827 +IFNg",[4],188%
same,"max. activation (%), NF-kB reporter, HCC827 -IFNg",[4],113%
PRO1126 (bispecific antibody) DFQLTQSPSSLSASVGDRVTITCQASQSINDYLAWYQQKPGKSPKLLIYKASTLASGVPSRFSGSGSGTDFTLTISSLQPEDFATYYCQQGYIITDIDNVFGTGTKVTVLGGGGGSQVQLQESGPGLVKPSETLSLTCKVSGFSFSNSYWICWIRQPPGKGLEWIGCTFVGSSDSTYYANWAKGRVTISVDSSKNQFSLKLSSVTAADTAVYYCARHPSDAVYGYANNLWGQGTLVTVSSGGGGSGGGGSGGGGSGGGGSIQMTQSPSSLSASVGDRVTITCQASQSINNVLAWYQQKPGKAPKLLIYRASTLASGVPSRFSGSGSGTDFTLTISSLQPEDFATYYCQSSYGNYGDFGTGTKVTVLGGGGGSQSQLQESGPGLVKPSETLSLTCKASGFSFSSGYDMCWVRQPPGKGLEWIACVVAGSVDITYYASWAKGRVTISKDSSKNQVSLKLSSVTAADTAVYFCARKDAYSDAFNLWGQGTLVTVSS,"IC50, NFAT-luciferase reporter gene assay",human PD-L1 on cells,48.1 ng/mL
same,"fold improvement of neutralization potency against PRO885, NFAT reporter",human PD-L1 on cells,3 fold
same,"EC50, NFkB-luciferase reporter, CHO-PD-L1 cells",[1],6 ng/mL
same,"EC50, NFkB-luciferase reporter, HCC827 cells without IFNg",[2],6.97 ng/mL
same,"EC50, NFkB-luciferase reporter, HCC827 cells stimulated with IFNg",[3],5.48 ng/mL
same,"max. activation (%), NF-kB reporter, CHO-PD-L1",[4],242%
same,"max. activation (%), NF-kB reporter, HCC827 +IFNg",[4],208%
same,"max. activation (%), NF-kB reporter, HCC827 -IFNg",[4],135%
